Laboratory results from patent US20250277032A1 (BIOND BIOLOGICS, published 2025).
Blank lines part the entries; values can stand above or below the binder they belong to.

Target: T1, human ILT3 on the cell surface (recombinant human ILT3 exogenously overexpressed on HEK cells); ILT3 on THP-1 … (human, UniProt Q8NHJ6 22-448)
T1 construct: whole, on cells; also called membranal ILT3; hILT3
Test: flow cytometry on HEK cells overexpressing recombinant human ILT3

binding result: binds
B1: 7A5 (antibody, V domains shown)
VH: EVKLVESGGGLVKPGGSLKLSCAASGFTFSSYAMSWVRQTPAKRLEWVATISSDGGNTYYTDSVKGRFTISRDNARNTLDLQMSSLRSEDTAMYYCARHDGRGALDYWGQGTSVTVSS
VL: DIQMTQTTSSLSASLGDRVTISCRASQDISNYLNWYQQKPDGTVKLLIYYTSRLHSGVPSRFSGSGSGTDYSLTISNLEQEDIATYFCQQGNTLPWTFGGGTKLEIK
notes: Hybridoma (mouse) antibody

binding result: binds
B2: 3F6 (antibody, V domains shown)
VH: EVKLVESGGGLVKPGGSLKLSCAASGFTFSSYAMSWVRQTPAKRLEWVAAITFGGGNTYYPDSVKGRFTISRDNARNTLYLQMSSLRSEDTAMYYCARHGDGNYDFYAMDYWGQGTSVTVSS
VL: DIVMTQSPSSLTVTAGEKVTMSCKSSQSLLNSGNQKNYLTWYQQKPGQPPKLLIYWASTRESGVPDRFTGSGSRTDFTLTISRVQAEDLAVYYCQNDYSYPLTFGAGTKLELK
notes: Hybridoma (mouse) antibody
